What was measured:
[1] = target: Nucleosomes (cfDNA measured by Nu.Q H3.1 assay) in porcine liver perfusion solution (porcine); assay: batch depletion: porcine liver perfusate with 10% v/v antibody-agarose matrix, 60 min, 37 C; what is left is measured by Nu.Q H3.1 assay; sample 3, before incubation 87643 ng/ml
[2] = target: Nucleosomes (cfDNA measured by Nu.Q H3.1 assay) in porcine liver perfusion solution (porcine); assay: batch depletion: porcine liver perfusate with 10% v/v antibody-agarose matrix, 60 min, 37 C; what is left is measured by Nu.Q H3.1 assay; sample 1, before incubation 92466 ng/ml
[3] = target: Nucleosomes (cfDNA measured by Nu.Q H3.1 assay) in porcine liver perfusion solution (porcine); assay: batch depletion: porcine liver perfusate with 10% v/v antibody-agarose matrix, 60 min, 37 C; what is left is measured by Nu.Q H3.1 assay; sample 2, before incubation 73536 ng/ml

Substance: Antibody against histone H3.1 (Merck Millipore MABE952), coupled to NHS-activated Sepharose 4 Fast Flow
- cfDNA quantity in perfusate after incubation with the matrix (Nu.Q H3 Assay) [1]: 29800 ng/mL
- cfDNA quantity in perfusate after incubation with the matrix (Nu.Q H3 Assay) [2]: 38800 ng/mL
- cfDNA quantity in perfusate after incubation with the matrix (Nu.Q H3 Assay) [3]: 24300 ng/mL
